Assay results: patent publication US20060257366A1

Target: CH-296 retronectin fragment (UniProt P02751)
Assay: cell-based or functional assay

UniProt P02751, sequence (P02751 1361-2107): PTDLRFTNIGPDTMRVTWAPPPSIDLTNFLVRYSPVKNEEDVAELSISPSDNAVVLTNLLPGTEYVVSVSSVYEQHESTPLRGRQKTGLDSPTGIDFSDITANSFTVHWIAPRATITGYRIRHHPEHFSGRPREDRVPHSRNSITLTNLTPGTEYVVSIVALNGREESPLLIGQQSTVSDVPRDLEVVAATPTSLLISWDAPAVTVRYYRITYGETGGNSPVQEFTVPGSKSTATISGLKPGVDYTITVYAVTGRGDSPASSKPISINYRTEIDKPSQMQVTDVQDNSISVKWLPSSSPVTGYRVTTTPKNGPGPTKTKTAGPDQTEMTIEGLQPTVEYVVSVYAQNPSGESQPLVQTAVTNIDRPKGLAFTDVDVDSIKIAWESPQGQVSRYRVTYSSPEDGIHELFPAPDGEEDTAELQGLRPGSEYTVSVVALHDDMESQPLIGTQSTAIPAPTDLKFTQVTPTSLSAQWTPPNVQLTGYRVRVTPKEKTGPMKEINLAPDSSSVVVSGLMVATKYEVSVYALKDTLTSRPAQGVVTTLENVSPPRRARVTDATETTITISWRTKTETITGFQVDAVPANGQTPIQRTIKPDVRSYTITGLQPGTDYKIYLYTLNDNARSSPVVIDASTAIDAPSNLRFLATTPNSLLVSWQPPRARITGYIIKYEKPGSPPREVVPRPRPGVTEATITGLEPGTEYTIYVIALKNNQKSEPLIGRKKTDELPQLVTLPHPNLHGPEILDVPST

Q: For RD114/TR chimeric glycoprotein, which transduction efficiency of human CD34+ cells on retronectin-coated plates (% GFP+ cells) is on record?
A: 10 fold
